Patent publication US20240010735A1 (EISAI R AND D MANAGEMENT, published 2024)

Tests used:
[1] = molecular target: T1, mouse EphA4 extracellular region-SEAP-His protein (mouse); assay: competition ELISA; captured mouse EphA4 extracellular region-SEAP-His, competitor biotinylated mouse EphrinA1-Fc chimera (6 nM)
T1 construct: also called mouse EphA4 extracellular region-SEAP-His 10
Protocol: (§1) Anti-alkaline phosphatase antibodies (Thermo […]) were coated onto the wells of a 96-well plate (Nunc). After incubating at 4° C. overnight, the wells were blocked at room temperature for 1 hour by 1% Block Ace (DS Pharma Biomedical). After washing 3 times with 0.02% Tween 20/PBS (Thermo […]), mouse EphA4 extracellular region-SEAP-His protein was added to the wells (final concentration 10 nM), and incubated at room temperature for 1 hour. After washing 3 times, the ligand and antibody A (0, 0.003, 0.01, 0.03, 0.1, 0.3, 1, 3, 10, 30, 100, 300, 1000, 3000 nM) were supplemented to the wells. Note that biotinylated mouse EphrinA1-Fc chimera (R&D Systems, final concentration 6 nM) and biotinylated mouse EphrinB2-Fc chimera (R&D Systems, final concentration 2.5 nM) were employed as ligands. After incubating at room temperature for 1 hour and washing 3 times, horseradish peroxidase-labeled streptavidin (GE Healthcare) was added, and incubated at room temperature for 1 hour. After washing 3 times, TMBZ (3,3′, 5,5′-tetramethylbenzidine, Sigma) solution was added to the wells, and incubated at room temperature for 2 minutes. An equal amount of quenching solution (1 N H₂SO₄, Wako Pure Chemicals) was added to the wells, and absorbance at 450 nm was read by a microplate reader (PerkinElmer). […]

[2] = molecular target: T2, human EphA4 extracellular region-SEAP-His protein (human, UniProt P54764 20-547); assay: competition ELISA; captured human EphA4 extracellular region-SEAP-His, competitor biotinylated human EphrinA5-Fc chimera (0.7 nM)
T2 construct: also called human EphA4 extracellular region-SEAP-His 10; not shown: secretory alkaline phosphatase (SEAP); histidine tag
Protocol: Anti-alkaline phosphatase antibodies (Thermo […]) were coated onto the wells of a 96-well plate (Nuns). After incubating at 4° C. overnight, the wells were blocked at room temperature for 1 hour by 1% Block Ace (DS Pharma Biomedical). After washing 3 times with 0.05% Tween 20/PBS (Thermo […]), human EphA4 extracellular region-SEAP-His protein was added to the wells (final concentration 10 nM), and incubated at room temperature for 1 hour. After washing 3 times, the ligand and serially diluted antibody A (0, 0.003, 0.01, 0.03, 0.1, 0.3, 1, 3, 10, 30, 100, 300, 1000, 3000 nM) were supplemented to the wells. Note that biotinylated human EphrinA5-Fc chimera (R&D Systems, final concentration 0.7 nM) and biotinylated human EphrinB3-Fc chimera (R&D Systems, final concentration 2.3 nM) were employed as ligands. After incubating at room temperature for 1 hour and washing 3 times, horseradish peroxidase-labeled streptavidin (GE Healthcare) was added, and incubated at room, temperature for 1 hour. After washing 3 times, TMBZ (3,3′,5,5 ′-tetramethylbenzidine, Sigma) solution was added to the wells, and incubated at room temperature for 2-5minutes. An equal amount of quenching solution (1 N H₂SO₄, Wako Pure Chemicals) was added to the wells, and absorbance at 450 nm was read by a microplate reader (Molecular Devices or PerkinElmer). […]

[3] = molecular target: T1, mouse EphA4 extracellular …; assay: competition ELISA; captured mouse EphA4 extracellular region-SEAP-His, competitor biotinylated mouse EphrinB2-Fc chimera (2.5 nM)
Protocol: as §1

[4] = molecular target: MBP; assay: ELISA: human EphA4 domain-MBP-His proteins (10 nM) captured on anti-6-His antibody, antibody B 10 nM, HRP anti-human IgG Fc fragment antibody, OD450-OD650
Protocol: Rabbit anti-6-His antibodies (Bethyl Laboratories) were coated onto the wells of a 96-well plate (Nunc). After incubating at 4° C. overnight, the wells were blocked at room temperature for 1 hour by 1% Block Ace (DS Pharma Biomedical). After washing twice with 0.02% Tween 20/PBS (Nacalai Tesque), human EphA4 extracellular region-MBP-His protein, human EphA4 ligand binding domain-MBP-His protein, human EphA4 fibronectin type III domain 1-MBP-His protein, and human EphA4 fibronectin type III domain 2-MBP-His protein (final concentration 10 nM) were seeded into the wells, and incubated at room temperature for 1 hour. After washing 3 times, antibody B (final concentration 10 nM) was supplemented to the wells, and incubated at room temperature for 1 hour. Horseradish peroxidase-labeled rabbit anti-human IgG Fey fragment antibody (Jackson ImmunoResearch Laboratories) was added, and incubated at room temperature for 1 hour. After washing 5 times, TMB (KPL) solution was added to the wells, and upon confirmation of modest coloring, an equal amount of quenching solution (2 N […]) was added to the wells, and absorbance at 450 nm and 650 nm were read by a microplate reader (PerkinElmer).

T1 sequence (chain, as listed by the source limits assumed): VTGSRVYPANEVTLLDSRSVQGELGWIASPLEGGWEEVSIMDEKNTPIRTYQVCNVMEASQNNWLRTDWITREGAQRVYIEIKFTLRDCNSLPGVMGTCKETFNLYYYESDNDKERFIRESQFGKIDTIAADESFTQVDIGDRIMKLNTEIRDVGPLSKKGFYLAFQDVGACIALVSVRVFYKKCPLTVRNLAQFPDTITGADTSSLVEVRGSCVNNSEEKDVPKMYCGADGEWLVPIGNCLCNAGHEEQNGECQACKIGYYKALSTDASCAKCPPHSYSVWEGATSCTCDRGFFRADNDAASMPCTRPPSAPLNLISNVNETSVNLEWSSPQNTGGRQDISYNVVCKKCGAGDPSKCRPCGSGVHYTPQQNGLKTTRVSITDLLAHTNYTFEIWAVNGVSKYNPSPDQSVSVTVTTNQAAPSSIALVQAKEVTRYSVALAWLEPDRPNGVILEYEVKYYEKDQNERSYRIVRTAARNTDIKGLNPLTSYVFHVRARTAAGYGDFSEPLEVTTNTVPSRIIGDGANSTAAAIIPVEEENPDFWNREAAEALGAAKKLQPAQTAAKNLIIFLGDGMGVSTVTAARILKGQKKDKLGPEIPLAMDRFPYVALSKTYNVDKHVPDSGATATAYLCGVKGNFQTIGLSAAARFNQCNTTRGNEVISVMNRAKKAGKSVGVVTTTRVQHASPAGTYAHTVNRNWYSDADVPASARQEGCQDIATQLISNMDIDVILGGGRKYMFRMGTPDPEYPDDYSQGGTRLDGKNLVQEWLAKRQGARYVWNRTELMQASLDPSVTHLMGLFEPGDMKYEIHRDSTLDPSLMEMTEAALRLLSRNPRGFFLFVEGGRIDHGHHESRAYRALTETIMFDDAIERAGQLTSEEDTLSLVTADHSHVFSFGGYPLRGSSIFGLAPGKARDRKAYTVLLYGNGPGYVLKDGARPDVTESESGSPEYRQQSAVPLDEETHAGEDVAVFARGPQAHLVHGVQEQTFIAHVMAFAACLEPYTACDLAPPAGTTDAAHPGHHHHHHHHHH
T2 sequence (P54764 20-547): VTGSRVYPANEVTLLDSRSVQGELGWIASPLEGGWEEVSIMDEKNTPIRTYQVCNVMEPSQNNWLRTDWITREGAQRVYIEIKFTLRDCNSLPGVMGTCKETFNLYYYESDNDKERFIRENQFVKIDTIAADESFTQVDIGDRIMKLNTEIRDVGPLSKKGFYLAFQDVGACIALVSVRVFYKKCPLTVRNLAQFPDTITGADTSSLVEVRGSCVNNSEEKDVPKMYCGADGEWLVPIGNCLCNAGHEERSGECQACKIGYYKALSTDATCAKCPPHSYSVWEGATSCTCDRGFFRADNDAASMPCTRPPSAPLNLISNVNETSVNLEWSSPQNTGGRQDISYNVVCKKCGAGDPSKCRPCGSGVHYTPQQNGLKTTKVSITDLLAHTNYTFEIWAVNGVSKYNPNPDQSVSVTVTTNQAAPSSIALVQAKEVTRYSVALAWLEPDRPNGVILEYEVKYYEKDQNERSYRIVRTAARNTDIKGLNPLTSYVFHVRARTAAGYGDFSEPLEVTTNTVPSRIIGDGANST

Binder	IC50 [1] [nM]	IC50 [2] [nM]	IC50 [3] [nM]	binding result [4]
humanized anti-EphA4 monoclonal antibody (antibody B) (antibody, human IgG2, V domains shown, expressed in Expi293F cells; also called humanized antibody of antibody A; HK2-42 / L1-8) VH: QVQLVESGGGVVQPGRSLRLSCAVSGFSLTRFGVHWVRQAPGKGLEWVAVIWRGGSTDYNAAFMSRLTISKDNSKNTVYLQMNSLRAEDTAVYYCAKESLFGVYYDYGYYSMDYWGQGTTVTVSS VL: DIQMTQSPSSLSASVGDRVTITCRASQEISGYLSWLQQKPGKAPKRLIYAASTLDSGVPSRFSGSRSGTEYTLTISSLQPEDFATYYCLQYASYPLTFGGGTKVEIKR	~8.7	~4.9	~4.2	no binding (tested: 10 nM)
mouse anti-EphA4 monoclonal antibody (antibody A) (antibody, mouse IgG1, kappa, V domains shown, purified from hybridoma supernatant) VH: QVQLKQSGPSLVQPSQSLSITCTVSGFSLTRYGVHWVRQSPGKGLEWLGVIWRGGSTDYNAAFMSRLSITKDNSKSQVFFKMNSLQADDTAIYYCAKESLFGVYYDYGYYSMDYWGQGTSVTVSS VL: DIQMTQSPSSLSASLGERVSLTCRASQEISGYLSWLQQKPDGTIKRLIYAASTLDSGVPKRFSGSRSGSDYSLTISSLESEDFADYYCLQYASYPLTFGAGTKLELKR	~5.9	~2.8	~3.1	
